Consider one substance from publication PMC10536470, “Reducing the virulence of Pseudomonas aeruginosa by using multiple quorum-quenching enzymes” (Journal of Industrial Microbiology & Biotechnology, 2023).

By Km is commonly meant the concentration of substrate that gives half-maximal velocity. As usually defined, the kcat is the number of substrate molecules converted per active site and unit of time at saturation.

The test system of this data set is CCCCCCCCCC(=O)CC(=O)N[C@H]1CCOC1=O. The experiment in a line: purified protein. Particulars: bicine 2.5 mM pH 8.0, 50 mM NaCl, 0.2 mM ZnCl2, 0.5% DMSO, 30 °C, substrate 0.2-2 mM. Type of data set: biochemical, Chryseobacterium sp. StRB126.

Turning to AidC (Chryseobacterium sp. StRB126), the Km was found to be 0.56 ± 0.01 mM and the kcat was 250 ± 18 s⁻¹.
